Consider one molecule from article PMC2174947, “Transcriptional regulation of human eosinophil RNases by an evolutionary- conserved sequence motif in primate genome”.

For the data set, the target named is T1, GST-MAZ (UniProt P56270 1-477).
T1 sequence: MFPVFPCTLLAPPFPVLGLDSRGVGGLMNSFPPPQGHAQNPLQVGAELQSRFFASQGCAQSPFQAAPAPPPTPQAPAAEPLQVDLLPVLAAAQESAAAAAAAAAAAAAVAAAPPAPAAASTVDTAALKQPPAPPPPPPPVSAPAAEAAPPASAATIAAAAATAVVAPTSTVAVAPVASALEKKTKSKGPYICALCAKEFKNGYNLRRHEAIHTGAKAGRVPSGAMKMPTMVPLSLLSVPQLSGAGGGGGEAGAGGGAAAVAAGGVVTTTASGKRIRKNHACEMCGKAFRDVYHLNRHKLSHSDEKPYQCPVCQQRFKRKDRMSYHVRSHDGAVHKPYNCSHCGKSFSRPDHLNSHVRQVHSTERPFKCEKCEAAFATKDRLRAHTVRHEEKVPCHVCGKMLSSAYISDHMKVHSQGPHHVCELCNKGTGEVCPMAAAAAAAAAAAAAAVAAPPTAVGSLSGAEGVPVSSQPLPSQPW
In words: EMSA; EMSA: 10 mM Tris-HCl pH 7.5, 50 mM NaCl, 5 mM MgCl2, 1 mM EDTA, 10% glycerol, 1 ug poly(dI-dC), 30 C 30 min; DAPA: 20 mM HEPES pH 7.6, 10 mM (NH4)2SO4, 1 mM EDTA, 1 mM DTT, 1% Tween 20, 100 mM KCl, 4 C. The settings on record: protein: recombinant; label: 32P 5' end; blunt. Background: Mobility shift assays separate free from complexed probe on a gel.

B1: wt 34-nt EMSA probe (dsDNA)
DNA 1: GCCAAGAGCCAGACCCTCCCTCTGGGCTCTGCTGGCCCA
DNA 2: TGGGCCAGCAGAGCCCAGAGGGAGGGTCTGGCTCTTGGC
Take B1: the binding result is recorded as “binds”.
